Measured values as given in the RNAGym collection of RNA variant scans (doi:10.7554/elife.90254).

B1: LINE1-full (parent)
chain: UACGUAGGUGGUUUUCCCCUGAUAGUGCUAAGGGGGCCUGGAAGUUUGGACUGGGCAGAGCUCAACACAGCGUGGCAAAGUGGCUGUGGCUAGACUGCCUCUCUGGAUUCCUCGUCACUCAGCAGGGCAUCUCUGAGAGAAAUGCC

Variants of: B1
Test: self-cleavage, relative activity (ratio to wild type); higher = more cleavage; in vitro, sequencing; the parent is a self-cleaving ribozyme

Row | Variant | self-cleavage
1 | UACGUAGGUGGUUUUCCCCUGUUAGUGCUAAGGGGGCCUGGAAGUUUGGACUGGGCAGGGCUCAACACAGCGUGGCAAAGUGGCUGUGGCUAGACUGCCUCUCUGGAUUCCUCGUCACUCAGCAGGGCAUCUCUGAGAGAAAUGCC | 0.07
2 | UACGUAGGUGGUUUUCCCCUGAUAGUGCUAAGGGGGCCUGGAAGUUUGGACUGGGCAGAGCUCAACACAGCGUGGCAAAGUGGCUGUGGCUAGACUGCCUCUCUGGAUUCCUCGUCACUCAGCAGGGCCUCUCUGAGAGUAAUGCC | 1.75
3 | UACGUAGGUGGUUUUUCCCUGAUAGUGCUAAGGGGGCCUGGAAGUUUGGACUGGGCAGAGCUCAACACAGCGUGGCAAAGUGGCUGUGGCUAGACUGCCUCUCUGGAUUCCUCGUCACUCAGCAGGGCAUCUCUGAGAGAAGUGCC | 0.96
4 | UACGUAGGUGGUUUUCCCCUGAUAGUGCUAAAGGGGCCUGGAAGUCUGGACUGGGCAGAGCUCAACACAGCGUGGCAAAGUGGCUGUGGCUAGACUGCCUCUCUGGAUUCCUCGUCACUCAGCAGGGCAUCUCUGAGAGAAAUGCC | 1.19
5 | UACGUAGGUGGUUUUCCCCUGACAGUGCUAAGGGGGCCUGGAAGUUUGGACUGGGCAGAGCUCAACACAGCGUGGCAAAGUGGCUGUGGCUAGACUGCCUCUCUGGAUUCCUCGUCCCUCAGCAGGGCAUCUCUGAGAGAAAUGCC | 1.51
6 | UACGUAGGUGGUUUUCCCCUGAUAGUGCUAAGGGGGCCUGGAAGUUUGGACUGGGCAGAGCUCAACACUGCGAGGCAAAGUGGCUGUGGCUAGACUGCCUCUCUGGAUUCCUCGUCACUCAGCAGGGCAUCUCUGAGAGAAAUGCC | 0.04
7 | UACGUAGGUGGUUUUCCCCUGAUAGUGCUAAGGGGGCCUGGAAGUUUGGACUGGGCAGAGCUCAACACAGCGUGCCAAAGUGGCUGUGGCUAGACUGCCUCUCUGGAUCCCUCGUCACUCAGCAGGGCAUCUCUGAGAGAAAUGCC | 0.62
8 | UACGUAGGUGGUUUUCCCCUGAUAGUGCUAAGGGGGCCUGGAAGUUUGGACUGGGCAGAGCUCAACACAGCGUGGCAAAGUGGCUGUGGCUAGACUGCCUCUCUGGAUUCCUCGUCACUCUGCAGGGCAUCUCUGAGGGAAAUGCC | 1.56
9 | UACGUAGGUGGUUUCCCCCUGAUAGUGCUAAGGGGGCCUGGAAGUUUGGACUGGGCAGAGCUCAACACAGCGUGGCAAAGUGGCUGUGGCUAUACUGCCUCUCUGGAUUCCUCGUCACUCAGCAGGGCAUCUCUGAGAGAAAUGCC | 0.09
10 | UACGUAGGUAGUUUUCCCCUGAUAGUGCUAAGGGGGCCUGGAAGUUUGGACUGGGCAGAGCUCAACACAGCGUGGCAAAGUGGCUGUGGCUAGACUGCCUCUCUGGAUUCCUCGUCACUCAGCAGGGCAUCUCUGUGAGAAAUGCC | 0.95
11 | UACGUACGUGGUUUUCCCCUGAUAGUGCUAAGGGGGCCUGGAAGUUUGGACUGGGCAGAGCUCAACACAGCGUGGCAAAGUGGCUGUGGCUAGACUGCCUCUCUGGAUUCCUCGUCACUCAGCAGGGCUUCUCUGAGAGAAAUGCC | 1.17
12 | UACGUAGGUGGUUUUCCCCUGAUAGUGCUAAGGGGGCCUGGAAGUUCGGACUGGGCAGAGCUCAACACAGCGUGGCAAAGUGGUUGUGGCUAGACUGCCUCUCUGGAUUCCUCGUCACUCAGCAGGGCAUCUCUGAGAGAAAUGCC | 0.38
13 | UACGUGAGUGGUUUUCCCCUGAUAGUGCUAAGGGGGCCUGGAAGUUUGGACUGGGCAGAGCUCAACACAGCGUGGCAAAGUGGCUGUGGCUAGACUGCCUCUCUGGAUUCCUCGUCACUCAGCAGGGCAUCUCUGAGAGAAAUGCC | 0.43
14 | UACGUAGGUGGCUUUCCCCUGAUAGUGCUAAGGGGGCCUGGAAGUUUGGACUGGGCAGAGCUCAACACAGCGUGGCAAAGUGGCUGUGGCUAGACCGCCUCUCUGGAUUCCUCGUCACUCAGCAGGGCAUCUCUGAGAGAAAUGCC | 0.19
15 | UACGUAGGUGGUUUUCCCCUGAUAGUGCUAAGGGGGCCUGGAAGUCUGGACUGGGCAGAGCUCAACACAGCGUGGCAAAGUGGCUGUGGCUAGACUGCCUCUCCGGAUUCCUCGUCACUCAGCAGGGCAUCUCUGAGAGAAAUGCC | 1.96
16 | UACGUAGGUGGUUUUCCCCUGAUAGUGCUAAGGGGGCCUGGAAGUUUGGACUGGGCAGAGCUCAACACAGCGUGGCAAAGUGGCUGUGGCUAGACUGCCUCUCUGGAUUCCUCGUCACUCAGCAGGGCAUCUUUGAGGGAAAUGCC | 1.32
17 | UACGUAGGUGGUUUUCCCCUGAUAGUGCUAAGGGGGCCUGGAAGUUUGGACUGGGCAGAGCUCAACACAGCGUGGCAAAGUGGCUGUGGCUAGACUGCCUCUCUGGAUUCCUCGUCCCUCAGCAGGGCAUCUCAGAGAGAAAUGCC | 1.53
18 | UACGUAGGUUGUUUUCCCCUGAUAGUGCUAAGGGGGCCUGGAAGUUUGGACUGGGCAGAGCUCAACACAGCGUGGCAAAGUGGCUGUGGCUAGACUGCCUCUCUGGAUUCCUCGUCACUCAGCAGGGCACCUCUGAGAGAAAUGCC | 0.81
19 | UACGUAGGUGGUUUUCCCCUGAUAGUGCUAAGGGGGCCUGGAAGUUUGGACUGGGCAGAGUUCAACACAGCGUGGCAAAGUGGCUGUGGCUAGACUGCCUCUCUGGAUUCCUCGUCGCUCAGCAGGGCAUCUCUGAGAGAAAUGCC | 0.05
20 | UACGUAGGUGGUUUUCCCCUGAUAGUGCUAAGGGGGCCUGGAAGUUUGGACUGGGCAGAGCUCAACACAGCGUGGCAAAGUGGCUGUGGCUGGACUGACUCUCUGGAUUCCUCGUCACUCAGCAGGGCAUCUCUGAGAGAAAUGCC | 0.08

Row | Variant | self-cleavage
21 | UACGUAGGUGGUUUUCCCCUGAUAGUGCUAAGGGGGCCUGGAAGUUUGGACUGGGCAGAGCUCCACACAGCGUGGCAAAGUGGCUGUGGCUAGACUGCCUCUCUGGGUUCCUCGUCACUCAGCAGGGCAUCUCUGAGAGAAAUGCC | 0.36
22 | UACGUAGGUGGUUUUCCCCUGAUAGUGCUAAGGGGGCUUGGAAGUUUGGACUGGGCAGAGCUCAACGCAGCGUGGCAAAGUGGCUGUGGCUAGACUGCCUCUCUGGAUUCCUCGUCACUCAGCAGGGCAUCUCUGAGAGAAAUGCC | 0.42
23 | UACGUAGGUGGUUUUCCCCUGAUAGUGCUAAGGGGGCCUGGAAGUUUGGACUUGGCAGAGCUCAACACAGCGUGGCAAAGUGGCUGUGGCUAGACUGCCUCUCUGGAUUCCUCGUCACUCAGCAGGGCAACUCUGAGAGAAAUGCC | 1.53
24 | UACGUAGGUGGUUUUCCCCUGAUAGUGCUAAGGGGGCCUGGAAGUUUGGACUGGGCAGAGCUCAACACAGCGAGGCAAAGUGGCUGUGGCUAGACUGCCUCUCUGGAAUCCUCGUCACUCAGCAGGGCAUCUCUGAGAGAAAUGCC | 1.42
25 | UACGUAGGUGGUUUUCCCCUGAUAGUGCUAAGGGGGCCUGAAAGUUUGGACUGGGCAGAGCUCAACACAGCGUGGCAAAGUGGCUGUGGCUAGACUGCCUCUCUGGAUUCCUCGUCACUCAGCAGGGCAUCUCGGAGAGAAAUGCC | 0.98
26 | UACGUAGGUGGUAUUCCCCUGAUAGUGCUAAGGGGGCCUGGAAGUUUGGACUGGGCAGAGCUCAACACAGCGUGGCAAAGUGGCUGUGGCUAGACUGCCUCUCUGGAUUCCUCGUCACUCAGCAUGGCAUCUCUGAGAGAAAUGCC | 1.03
27 | UACGUAGGUGGUUUUCCCCUGAUAGUGCUAAGGGGGCCUGGAAGUUUGGACUGGGCAGAGCUCAACACAGCGUGGCAAAGUGGCUGUGGCUAGACUGCCUCUCUAGAUUCCUCGUCACUCAGCAGGGCACCUCUGAGAGAAAUGCC | 0.96
28 | UACGUAGGUGGUUUUCCCCUGAUAGUGCUAAGGGGGCCUGGAAGUUUGGACUGGGCAGAGCUCAACACAGCGGGGCAAAGUGGCUGUGGCUAGACUGCCUCUCUGGAUUCCUCGUCACUCAGCAGGGCAUCUCUGAGAGAAACGCC | 2.02
29 | UACGUAGGUGGUUUUCCCCUGAUAGUGCUAAGGGGGCCUGGAAGUUGGGACUGGGCAGAGCUCAACACAGCGUGGCAAAGUGGCUGUGGCUAGACUGCCUCUCUGGAUUCCCCGUCACUCAGCAGGGCAUCUCUGAGAGAAAUGCC | 0.8
30 | UACGCAGGUGGUUUUCCACUGAUAGUGCUAAGGGGGCCUGGAAGUUUGGACUGGGCAGAGCUCAACACAGCGUGGCAAAGUGGCUGUGGCUAGACUGCCUCUCUGGAUUCCUCGUCACUCAGCAGGGCAUCUCUGAGAGAAAUGCC | 0.67
31 | UACGUAGGUGGUUUUCCCCUGAUAGUGCUAAGGGGGCCUGGAAGUUUGGACUGGGCAGAGCUCGACACAGCGUGGCAAAGUGGCUGUGGCUAGACUGCCUCUCUGGAUUCCUCGUCACUCAGCAGGGCAACUCUGAGAGAAAUGCC | 0.28
32 | UACGUAGGUGGUUUUCCCCUGAUAGUGCCAAGGGGGCCUGGAAGUUUGGACUGGGCAGAGCUCAACACAGCGUGGCAAAGUGGCUGUGGCUAGACUGCCUCUCUGGAUUCCUCGUUACUCAGCAGGGCAUCUCUGAGAGAAAUGCC | 0.85
33 | UACGUAGGUGGUUUUCCCCUGAUUGUGCUAAGGGGGCCUGGAAGUUUGGACUGGGCAGAGCUCAACACAGCGUGGCAAAGUGGCUGUGGCUAGACAGCCUCUCUGGAUUCCUCGUCACUCAGCAGGGCAUCUCUGAGAGAAAUGCC | 0.07
34 | UACGUAGGUGGUUUUCCCCUGUUAGUGCUAAGGGGGCCUGGAAGUUUGGACUGGGCAGAUCUCAACACAGCGUGGCAAAGUGGCUGUGGCUAGACUGCCUCUCUGGAUUCCUCGUCACUCAGCAGGGCAUCUCUGAGAGAAAUGCC | 0.05
35 | UACGUGGGUGGUCUUCCCCUGAUAGUGCUAAGGGGGCCUGGAAGUUUGGACUGGGCAGAGCUCAACACAGCGUGGCAAAGUGGCUGUGGCUAGACUGCCUCUCUGGAUUCCUCGUCACUCAGCAGGGCAUCUCUGAGAGAAAUGCC | 0.93
36 | UACGUAGGUGGUUUUCCCCUGAUAGUGCUAAGGGGGCCUGGAAGUUUGGACAGGGCAGAGCUCAACACAGCGUGGCAAAGUGGCUGUGGCUAGACUGCCUCUCUGGAUUCCACGUCACUCAGCAGGGCAUCUCUGAGAGAAAUGCC | 0.8
37 | UACGUAGGUGGUUUUCCCCUGAUAGUGCUAAGGGGGCCAGGAAGUUUGGACUGGGCAGAGCUCAACACAGCGUGGCAAAGUGGCUGUGGCUAGACUGCCUCUCUGGAUUCCUCGUCACACAGCAGGGCAUCUCUGAGAGAAAUGCC | 1.46
38 | UACGUAGGUGGCUUUCCCCUGAUAGUGCUAAGGGGGCCUGGAAGUUUGGACUGGGCAGAGCUCAACACAGCGUGGCAAAGUGGCUGUGGCUAGACUGCCUCUCUGGAUUCCUCGUCACUCAGCAGGGCAUCUCUGAGGGAAAUGCC | 1.37
39 | UACGUAGGUGGUUUUCCCCUGAUAGUGCUAAGGGGGCCUGGAAGUUUGGACUGGGCAGAGCUCAACACUGCGUGGCAAAGUGGCUGUGGCUAGACUGCCUCUCUGGAUUCCUCUUCACUCAGCAGGGCAUCUCUGAGAGAAAUGCC | 0.06
